This test concerns the target tau (total tau), endogenous mouse protein in brain extracts (mouse) (UniProt P10637). Kind of test: immunoprecipitation with antibody to total tau, immunoblot for Chip; 8 months old against 6 weeks old mice. A general note: Immunoblotting shows a protein as a band on a membrane.

tau (total tau), endogenous mouse protein in brain extracts (mouse), sequence (P10637 other isoform, or with tags, fused parts or gaps limits assumed): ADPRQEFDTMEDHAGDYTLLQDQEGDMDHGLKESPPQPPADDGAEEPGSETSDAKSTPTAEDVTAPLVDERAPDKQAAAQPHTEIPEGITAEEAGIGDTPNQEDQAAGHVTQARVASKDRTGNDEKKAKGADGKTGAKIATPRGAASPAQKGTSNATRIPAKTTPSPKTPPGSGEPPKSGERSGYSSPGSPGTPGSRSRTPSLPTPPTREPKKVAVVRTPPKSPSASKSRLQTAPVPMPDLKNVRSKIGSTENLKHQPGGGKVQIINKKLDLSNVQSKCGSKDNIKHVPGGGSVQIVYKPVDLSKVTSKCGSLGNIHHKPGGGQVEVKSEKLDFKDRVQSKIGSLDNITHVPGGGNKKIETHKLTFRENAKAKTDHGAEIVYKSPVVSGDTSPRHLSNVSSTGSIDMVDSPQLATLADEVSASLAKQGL

In the case of “Chip (C-terminal Hsp70-interacting protein) ubiquitin ligase, endogenous mouse protein in brain extracts (from UniProt Q9WUD1 1-304) (enzyme)”, the fold amount of Chip co-immunoprecipitated with tau in aged brain extracts was 2 fold.

The values are drawn from patent publication US20110047631A1, “HEAT SHOCK PROTEIN DEFICIENCIES AS MODEL SYSTEMS FOR BRAIN PATHOLOGY AND CANCER” (Medical College of Georgia Research Institute Inc., priority 2009, published 2011).
